Experimental data reported in EP4775675A1 (Shanghai Hongcheng Biopharmaceutical Co., Ltd., dated 2026).
Where two headings read alike, the source gives them in different places. Each block holds one binder with its values, some of them ahead of it.

Columns and labels:
[1] = biological target: T1, cynomolgus monkey BDCA-2 on cells (Jurkat-cynoBDCA-2 cells; cynomolgus monkey pDCs) (cynomolgus monkey, UniProt A0A2K5UWP4 1-212); experiment: flow cytometry on Jurkat-cynoBDCA-2 cells
T1 construct: whole, on cells
T1 sequence: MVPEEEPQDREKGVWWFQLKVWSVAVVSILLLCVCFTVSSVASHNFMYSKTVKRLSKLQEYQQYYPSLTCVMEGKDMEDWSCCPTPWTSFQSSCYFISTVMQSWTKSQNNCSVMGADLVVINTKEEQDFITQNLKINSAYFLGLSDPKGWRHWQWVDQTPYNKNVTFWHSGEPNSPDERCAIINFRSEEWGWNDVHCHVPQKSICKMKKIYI

[2] = biological target: T2, human BDCA-2 on cells (Jurkat-hBDCA-2 cells; human pDCs; human PBMCs) (human, UniProt Q8WTT0 1-213); experiment: flow cytometry on Jurkat-hBDCA-2 cells
T2 construct: whole, on cells; also called CD303; CLEC4C
T2 sequence (looked up): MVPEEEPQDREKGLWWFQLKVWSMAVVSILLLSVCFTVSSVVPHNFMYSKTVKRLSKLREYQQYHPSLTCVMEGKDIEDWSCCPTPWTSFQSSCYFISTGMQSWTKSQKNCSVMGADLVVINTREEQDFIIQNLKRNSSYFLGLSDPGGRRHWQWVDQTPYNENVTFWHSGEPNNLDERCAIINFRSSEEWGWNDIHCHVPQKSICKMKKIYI

[3] = biological target: T2, human BDCA-2 on cells (Jurkat-hBDCA-2 …); experiment: cell-based or functional assay
[4] = biological target: T2, human BDCA-2 on cells (Jurkat-hBDCA-2 …); experiment: cell-based or functional assay; remark: listed apart in the source
[5] = biological target: T2, human BDCA-2 on cells (Jurkat-hBDCA-2 …); experiment: cell-based or functional assay; remark: listed apart in the source
[6] = biological target: T2, human BDCA-2 on cells (Jurkat-hBDCA-2 …); experiment: flow cytometry on Jurkat-hBDCA-2 cells; remark: listed apart in the source
[7] = biological target: T2, human BDCA-2 on cells (Jurkat-hBDCA-2 …); experiment: cell-based or functional assay; remark: listed apart in the source
[8] = biological target: T2, human BDCA-2 on cells (Jurkat-hBDCA-2 …); experiment: flow cytometry on Jurkat-hBDCA-2 cells; remark: listed apart in the source
[9] = biological target: T2, human BDCA-2 on cells (Jurkat-hBDCA-2 …); experiment: cell-based or functional assay; remark: listed apart in the source
[10] = biological target: T3, Human BDCA-2 protein (soluble, Octet analyte) (human, UniProt Q8WTT0 45-213, limits assumed); experiment: BLI (Octet Red96e), antibody on anti-human IgG sensor, human BDCA-2 protein in solution
T3 construct: Soluble protein used as analyte in BLI
T3 sequence (looked up): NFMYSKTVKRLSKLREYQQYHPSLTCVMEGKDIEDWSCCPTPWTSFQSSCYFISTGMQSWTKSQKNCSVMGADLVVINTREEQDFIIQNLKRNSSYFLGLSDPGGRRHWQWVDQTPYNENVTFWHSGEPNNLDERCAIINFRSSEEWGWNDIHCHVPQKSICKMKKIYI

[11] = biological target: T2, human BDCA-2 on cells (Jurkat-hBDCA-2 …); experiment: cell-based or functional assay; remark: listed apart in the source
[12] = biological target: T2, human BDCA-2 on cells (Jurkat-hBDCA-2 …); experiment: flow cytometry on sorted human pDCs
[13] = biological target: T2, human BDCA-2 on cells (Jurkat-hBDCA-2 …); experiment: cell-based or functional assay; remark: listed apart in the source
[14] = biological target: T3, Human BDCA-2 protein (soluble, Octet …); experiment: BLI (Octet Red96e), antibody on anti-human IgG sensor, human BDCA-2 protein in solution; remark: listed apart in the source
[15] = biological target: T4, cynomolgus monkey BDCA-2 protein (acro, CLC-C52H4) (cynomolgus monkey, UniProt A0A2K5UWP4 45-212); experiment: BLI (Octet Red96e), antibody on anti-human IgG sensor, cynomolgus monkey BDCA-2 protein in solution
T4 construct: Bought soluble protein; also called cyno BDCA-2
T4 sequence: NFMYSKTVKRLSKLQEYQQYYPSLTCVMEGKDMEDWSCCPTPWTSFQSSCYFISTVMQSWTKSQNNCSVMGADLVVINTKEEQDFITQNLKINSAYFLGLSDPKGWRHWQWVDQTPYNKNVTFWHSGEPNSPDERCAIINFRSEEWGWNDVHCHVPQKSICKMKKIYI

human CLEC6A = biological target: T5, human CLEC6A (human, UniProt Q6EIG7 42-209, limits assumed); experiment: ELISA, coated protein 1 µg/ml
T5 sequence (looked up): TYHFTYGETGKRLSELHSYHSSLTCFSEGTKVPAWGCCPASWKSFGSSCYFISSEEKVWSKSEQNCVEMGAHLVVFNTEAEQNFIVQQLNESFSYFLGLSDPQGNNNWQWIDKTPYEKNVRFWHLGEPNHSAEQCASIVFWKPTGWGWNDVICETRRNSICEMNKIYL

human CLEC4D = biological target: T6, human CLEC4D (human, UniProt Q8WXI8 39-215, limits assumed); experiment: ELISA, coated protein 1 µg/ml
T6 sequence (looked up): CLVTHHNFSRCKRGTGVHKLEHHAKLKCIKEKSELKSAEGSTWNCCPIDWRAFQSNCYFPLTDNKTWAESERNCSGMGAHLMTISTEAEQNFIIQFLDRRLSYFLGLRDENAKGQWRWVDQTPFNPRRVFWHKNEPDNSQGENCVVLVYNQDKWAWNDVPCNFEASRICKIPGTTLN

human CLEC4A = biological target: T7, human CLEC4A (human, UniProt Q9UMR7 70-237, limits assumed); experiment: ELISA, coated protein 1 µg/ml
T7 sequence (looked up): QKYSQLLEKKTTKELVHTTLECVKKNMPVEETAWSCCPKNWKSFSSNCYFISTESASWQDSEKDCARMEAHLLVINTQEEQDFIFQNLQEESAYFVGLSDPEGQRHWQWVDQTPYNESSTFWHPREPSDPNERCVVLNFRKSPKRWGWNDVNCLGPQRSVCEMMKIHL

human CLEC4E = biological target: T8, human CLEC4E (human, UniProt Q9ULY5 41-219, limits assumed); experiment: ELISA, coated protein 1 µg/ml
T8 sequence (looked up): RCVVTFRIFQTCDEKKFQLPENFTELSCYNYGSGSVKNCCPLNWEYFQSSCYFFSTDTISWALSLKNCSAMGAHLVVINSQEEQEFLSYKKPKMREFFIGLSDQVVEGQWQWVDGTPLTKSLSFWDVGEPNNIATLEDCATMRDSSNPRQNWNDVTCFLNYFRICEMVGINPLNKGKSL

[16] = biological target: T1, cynomolgus monkey BDCA-2 on cells …; experiment: flow cytometry on Jurkat-cynoBDCA-2 cells; remark: listed apart in the source
[17] = biological target: human FcγRIIIa (158V) on Jurkat-human FcγRIIIa (158V)-NFAT cells (human, UniProt P08637 17-254); experiment: cell-based or functional assay
human FcγRIIIa (158V) on Jurkat-human FcγRIIIa (158V)-NFAT cells, sequence (P08637 17-254 F176V): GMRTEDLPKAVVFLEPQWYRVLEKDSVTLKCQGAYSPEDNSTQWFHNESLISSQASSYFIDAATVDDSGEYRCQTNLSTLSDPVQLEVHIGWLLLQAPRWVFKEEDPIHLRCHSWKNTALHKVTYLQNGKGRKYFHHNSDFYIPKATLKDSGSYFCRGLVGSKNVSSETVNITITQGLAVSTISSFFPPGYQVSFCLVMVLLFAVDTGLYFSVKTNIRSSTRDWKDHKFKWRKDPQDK

EC50 [1]: 0.233 µg/mL
EC50 [2]: 0.189 µg/mL
EC50, inhibition of CpGA-induced type I interferon (IFNα) production in human PBMC cells [3]: 0.002 µg/mL
B1: 164C11B8 (murine hybridoma monoclonal antibody) (antibody, V domains shown)
VH: DVILVESGGGLVKPGGSLKLSCAASGITFSTYTMSWLRQTPEKRLEWVATINSGGDNTYYPDSVKGRFTISRDNAKNNLYLQMSSLKSEDTALYYCATYRPYYYGSVLDYWGQGTTLTVSS
VL: DIVLTQSPASLAVSLGQRATISCKASQSVDYDGNSYVNWYQQKPGQPPKLLIYGASNLESGIPDRFSGSGSGTDFTLNIHPVEEEDGATYYCQQSDEDPWTFGGGTKLEIR
notes: Mouse antibody from hybridoma; also called hybridoma 164C11B8; hybridoma antibody 164C11B8

EC50, inhibition of CpGA-induced type I interferon (IFNα) production in human PBMC cells [4]: 0.0132 µg/mL
EC50, inhibition of CpGA-induced type I interferon (IFNα) production in human PBMC cells [5]: 0.0025 µg/mL
EC50 [6]: 0.0704 µg/mL
EC50, inhibition of immune complex-induced type I interferon (IFNα) in human pDC cells [7]: 6.1 ng/mL
EC50 [8]: 0.175 µg/mL
EC50 [2]: 0.224 µg/mL
EC50, inhibition of immune complex-induced type I interferon (IFNα) production by human pDC cells [9]: 2.1 ng/mL
Kd [10]: 1.9 nM
EC50, inhibition of CpGA-induced type I interferon (IFNα) production in human PBMC cells [11]: 0.0021 µg/mL
EC50, inhibition of CpGA-induced type I interferon (IFNα) production in human PBMC cells [3]: 0.0031 µg/mL
EC50 [12]: 0.281 µg/mL
EC50, inhibition of immune complex-induced type I interferon (IFNα) in human pDC cells [13]: 33.4 ng/mL
Kd [14]: 3.9 nM
B2: BIIB059 (antibody)
chain 1: not shown
chain 2: DIQLTQSPSSLSASVGDRVTITCKASQSVDYDGDSYMNWYQQKPGKAPKLLIYAASTLESGVPSRFSGSGSGTDFTLTISSLQPEDFATYYCQQANEDPRTFGQGTKVEIKRTVAAPSVFIFPPSDEQLKSGTASVVCLLNNFYPREAKVQWKVDNALQSGNSQESVTEQDSKDSTYSLSSTLTLSKADYEKHKVYACEVTHQGLSSPVTKSFNRGEC

EC50 [6]: 0.0595 µg/mL
Kd [15]: 4.8 nM
koff [15]: 0.00064 s⁻¹
kon [15]: 130000 M⁻¹ s⁻¹
binding result (human CLEC6A): no binding (tested: 10 µg/ml)
binding result (human CLEC4D): no binding (tested: 10 µg/ml)
binding result (human CLEC4A): no binding (tested: 10 µg/ml)
binding result (human CLEC4E): no binding (tested: 10 µg/ml)
EC50, inhibition of immune complex-induced type I interferon (IFNα) production by human pDC cells [9]: 1 ng/mL
EC50 [16]: 0.0944 µg/mL
EC50, inhibition of CpGA-induced type I interferon (IFNα) production in human PBMC cells [11]: 0.0011 µg/mL
EC50, activation of Jurkat-human FcγR IIIa (158V)-NFAT cell line with Jurkat-hBDCA-2 target cells [17]: 0.005 µg/mL
Kd [14]: 2.9 nM
koff [14]: 0.000523 s⁻¹
kon [14]: 179000 M⁻¹ s⁻¹
B3: 17G6A2_hzH1L7_hIgG1 (antibody)
heavy: not shown
light: DIVLTQSPASLAVSPGQRATITCRASESVSFHGTHLMHWYQQKPGQPPKLLIYAASNLESGVPARFSGSGSETDFTLTINPVEAEDTANYYCQQSIEDPPTFGGGTKVEIKRTVAAPSVFIFPPSDEQLKSGTASVVCLLNNFYPREAKVQWKVDNALQSGNSQESVTEQDSKDSTYSLSSTLTLSKADYEKHKVYACEVTHQGLSSPVTKSFNRGEC
notes: Humanized, human IgG1/kappa (hzVH01 + hzVL07)
